Test results as given in the supplement of paper PMC7125110.
± gives the standard error. For some of these results: This sample holds only a part of the variants without activity.

B1: glmS ribozyme (parent)
chain: AUAAAAGCGCCAGAACUACAGAAAUGUAGUUGACGAGGAGGAGGUUUAUCGAAUUUUCGGCGGAUGCCUCCAAA

Tests used:
Conditions in all cases: with glucosamine-6-phosphate
glucosamine-6-phosphate [1] = variants of: B1; assay: kcat; higher = faster cleavage; RNA array
Procedure, shortened: (§1)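 On sequenced MiSeq chips, barcoded ribozyme variants were made in situ by E. coli RNA polymerase and followed at 37 °C through a hybridised Cy3 probe. Glucosamine-6-phosphate was flowed in at 40 μM to 10 mM in HEPES/KCl/Mg(OAc)2 buffer. Exponential fits to normalised per-tile medians gave kobs, and weighted Michaelis–Menten fits gave kcat and KM.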

glucosamine-6-phosphate [2] = variants of: B1; assay: self-cleavage kobs at 40 uM GlcN6P; higher = faster cleavage; RNA array
Procedure, shortened: as §1

glucosamine-6-phosphate [3] = variants of: B1; assay: KM; higher = weaker cofactor use; RNA array
Procedure, shortened: as §1

glucosamine-6-phosphate [4] = variants of: B1; assay: self-cleavage kobs at 160 uM GlcN6P; higher = faster cleavage; RNA array
Procedure, shortened: as §1

glucosamine-6-phosphate [5] = variants of: B1; assay: self-cleavage kobs at 640 uM GlcN6P; higher = faster cleavage; RNA array
Procedure, shortened: as §1

glucosamine-6-phosphate [6] = variants of: B1; assay: self-cleavage kobs at 2500 uM GlcN6P; higher = faster cleavage; RNA array
Procedure, shortened: as §1

glucosamine-6-phosphate [7] = variants of: B1; assay: self-cleavage kobs at 10000 uM GlcN6P; higher = faster cleavage; RNA array
Procedure, shortened: as §1

Row | Variant | kcat (glucosamine-6-phosphate [1]) | self-cleavage kobs at 40 uM GlcN6P (glucosamine-6-phosphate [2]) | KM (glucosamine-6-phosphate [3]) | self-cleavage kobs at 160 uM GlcN6P (glucosamine-6-phosphate [4]) | self-cleavage kobs at 640 uM GlcN6P (glucosamine-6-phosphate [5]) | self-cleavage kobs at 2500 uM GlcN6P (glucosamine-6-phosphate [6]) | self-cleavage kobs at 10000 uM GlcN6P (glucosamine-6-phosphate [7])
1 | G40U U56C | 1.13e-05 ± 5.2e-06 s⁻¹ | < 1e-05 s⁻¹ | – | – | – | – | –
2 | C10A A42C | < 1e-05 s⁻¹ | < 1e-05 s⁻¹ | 2410 ± 820 µM | < 1e-05 s⁻¹ | < 1e-05 s⁻¹ | – | –
3 | A6U G13U | < 1e-05 s⁻¹ | < 1e-05 s⁻¹ | – | – | < 1e-05 s⁻¹ | – | –
4 | C68A C71U | 1.62e-05 ± 4.6e-06 s⁻¹ | – | – | – | – | 2.17e-05 ± 9.8e-06 s⁻¹ | –
5 | U47A C68G | 4.89e-05 ± 9.9e-06 s⁻¹ | – | – | – | 4.99e-05 ± 1.2e-05 s⁻¹ | 6.81e-05 ± 1.2e-05 s⁻¹ | 3.56e-05 ± 9.2e-06 s⁻¹
6 | A33U U54G | 0.000139 ± 4.4e-05 s⁻¹ | < 1e-05 s⁻¹ | – | < 1e-05 s⁻¹ | 4.57e-05 ± 1.6e-05 s⁻¹ | 5.67e-05 ± 9.8e-06 s⁻¹ | 0.000111 ± 1.8e-05 s⁻¹
7 | U30G C50U | < 1e-05 s⁻¹ | – | – | < 1e-05 s⁻¹ | – | – | –
8 | C50A C70U | 3.03e-05 ± 6.5e-06 s⁻¹ | – | – | – | 2.82e-05 ± 9.4e-06 s⁻¹ | 3.95e-05 ± 6.5e-06 s⁻¹ | 1.9e-05 ± 7e-06 s⁻¹
9 | C10A U30C A53G C67A | 1.94e-05 ± 4e-06 s⁻¹ | – | – | – | – | – | –
10 | U31G C58A | 0.000195 ± 2.1e-05 s⁻¹ | – | 2240 ± 600 µM | – | 5.23e-05 ± 1.2e-05 s⁻¹ | 9.47e-05 ± 1.4e-05 s⁻¹ | 0.000163 ± 1.7e-05 s⁻¹
11 | C34U C50A | 1.45e-05 ± 5.7e-06 s⁻¹ | – | – | – | – | – | –
12 | A12G C67A | 0.000389 ± 8.6e-05 s⁻¹ | – | 2400 ± 880 µM | 4.4e-05 ± 1e-05 s⁻¹ | 7.88e-05 ± 8.7e-06 s⁻¹ | 0.000186 ± 2.1e-05 s⁻¹ | 0.000343 ± 4.8e-05 s⁻¹
13 | U57A G66U | 2.06e-05 ± 1.5e-06 s⁻¹ | < 1e-05 s⁻¹ | – | – | – | – | –
14 | U49G G66U | 6.16e-05 ± 2.8e-07 s⁻¹ | – | 5640 ± 59 µM | – | – | – | 3.94e-05 ± 1.3e-05 s⁻¹
15 | C16A C68A | 1.91e-05 ± 5.8e-06 s⁻¹ | – | – | – | – | – | –
16 | A39U U47A | 0.0219 ± 0.0045 s⁻¹ | 0.000309 ± 3.8e-05 s⁻¹ | 3320 ± 900 µM | 0.000791 ± 0.00013 s⁻¹ | 0.00397 ± 0.00055 s⁻¹ | 0.00871 ± 0.0017 s⁻¹ | 0.0166 ± 0.002 s⁻¹
17 | A15U C67A | 0.00148 ± 0.00015 s⁻¹ | 4.29e-05 ± 1e-05 s⁻¹ | 1700 ± 250 µM | 0.000119 ± 1.6e-05 s⁻¹ | 0.000447 ± 9.2e-05 s⁻¹ | 0.000861 ± 0.00014 s⁻¹ | 0.00127 ± 0.00019 s⁻¹
18 | G32A C58A C68U | 0.000878 ± 0.00034 s⁻¹ | – | – | – | 8.56e-05 ± 1.4e-05 s⁻¹ | 0.000172 ± 7.4e-05 s⁻¹ | 0.000572 ± 0.00012 s⁻¹
19 | A14C G37A | 0.000437 ± 0.00013 s⁻¹ | – | – | 6.1e-05 ± 1.7e-05 s⁻¹ | 8.51e-05 ± 1.4e-05 s⁻¹ | 0.000201 ± 3e-05 s⁻¹ | 0.000388 ± 6.8e-05 s⁻¹
